The test system of the data set is MS2 coat protein. Kind of data set: apparent KD of MS2 coat protein; designed switch direction (-1 OFF switch, 1 ON switch): 1; higher = weaker reporter binding. In short, it runs like this:
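The reported apparent KD is a per-design median over clusters, from curve fits of normalised cluster fluorescence. Protein titrations used SNAP-549-labelled MS2 coat protein, doubled from 0.7 or 1.5 nM to 3 µM, in Tris-HCl pH 7.5 buffer with KCl, MgCl2, BSA, DTT, tRNA and Tween-20, with no input, 200 uM small-molecule ligand, or an oligonucleotide input. The RNA switches were transcribed on Illumina chips by stalled E. coli RNA polymerase.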

The mark [1] stands for this setting: Eterna round: R95, input ligand: FMN 200 uM.
Where [2] appears, read: Eterna round: R95, input ligand: microRNA oligo, concentration not stated.
[3] abbreviates: Eterna round: R95, input ligand: none.
Where [4] appears, read: input ligand: microRNA oligo, concentration not stated.

Data on 21 sequences can be found in the supplement of paper PMC9170038.

On to “AGUCCAGCCUGAGCUGGACAAAAGCAUGUACAUGAGGAUCACCCAUGUUAUGUACAAGCUUUUUGCUCGUUUUAAUA [Zipper 49 - 15] (puzzle: Sensor for hsa-mir-208a)”, for which the “apparent KD of MS2 coat protein” value is, setting by setting: under setting [1], 191 nM; under setting [2], 13.1 nM; under setting [3], 199 nM.
In the case of “UGACACACGGCAGGAUAUCGAUUCCAAAGGAAUCGAGAAGGGCCUCAUGUCGUGGAAACGUGACAUGAGGAUCACCCAUGUCGC [Omei SS(NG)1 Cv16] (Eterna round: R96, puzzle: Same State NG 1)”, the “apparent KD of MS2 coat protein” value reads like this: (input ligand: FMN 200 uM) 65 nM; under setting [4], 3.72 nM; (input ligand: none) 64.2 nM.
In the case of “GUGGUCAGACAUGAGGAUCACCCAUGUGGAAUAAAUAACGGACAGGAUAUAGAAUAUAGGAUAUACUAGAAGGGUUGAUUGGUG (Eterna round: R96, puzzle: Same State NG 3)”, the “apparent KD of MS2 coat protein” value under setting [4] came out at 45.1 nM.
With “GAGUGGCGAUUAGGAUAUACAGUGAUAAUGAUAGUAGAAGGAAUUGACAUGAGGAUCACCCAUGUAGGACUAAUCCAGAGAGAG [Parity 30 - Jieux - Same State NG 1] (Eterna round: R96, puzzle: Same State NG 1)”, the “apparent KD of MS2 coat protein” value under setting [4] worked out at 57 nM.
Take “AACAAUCUAUCUGAGGAUAUCAUUAAAUAAACAUGAGGAUCACCCAUGUGCAGGAAAACUGCAUAUGAGAAGGCAGAUAGAUUGA [salish99_ss2_r3_029] (puzzle: Same State 2)”: the “apparent KD of MS2 coat protein” value turned out to be 12.3 nM under setting [1], 46.2 nM under setting [2] and 55.2 nM under setting [3].
Consider “CCGUAGAUGGAAGGAUAUGGAGCCUUAUUGGCUCCAGAAGGUUCAAUACAUGAGGAUCACCCAUGUUCGGCGGUCAAUAGACCG [Eli NG1ss - 81] (Eterna round: R96, puzzle: Same State NG 1)”, for which the “apparent KD of MS2 coat protein” value is, setting by setting: (input ligand: FMN 200 uM) 26.9 nM; under setting [4], 32 nM; (input ligand: none) 66.6 nM.
“CAGUGCUGUUGAGAGGAUAUGCGGCGACGGACAUGAGGAUCACCCAUGUUAGCGACAGCGUUGCGGCAGAAGGCUCUGCCCGCUA [Soteed Omei mod 51] (puzzle: Same State 2)”: the “apparent KD of MS2 coat protein” value under setting [2] stood at 39.3 nM.
Turning to “GGUGCCAAAUAAGCCUACAUGAGGAUCACCCAUGUAUGUAGGCAGGAUAUCGUUUGCAAAGCAAACGAGAAGGGCCUAGGCACC [Mat - Same State NG 3 - JL Mod - D62] (Eterna round: R96, puzzle: Same State NG 3)”, the “apparent KD of MS2 coat protein” value worked out at 19.1 nM (input ligand: FMN 200 uM), 18.5 nM under setting [4] and 35.2 nM (input ligand: none).
For “AGCUAUUAAUCAGGAUAUGGUCACAUGAGGAUCACCCAUGUAACGAUGAUAUAAUGUGGUCAAGACUAGAAGGGAUUGCUAACA [SameState NG2 #66] (Eterna round: R96, puzzle: Same State NG 2)” the same measures were 169 nM, 221 nM and 191 nM.
On to “CUCCAUUGGGUAGGAUAUCUAGGAUAUGGGAAAGACUAAGUCUGUAGGUCACCUAACCCAGAUGGAGAGAAGGACCCAACUCUC [pwkr ssNG2 2FMN + F9.41] (Eterna round: R96, puzzle: Same State NG 2)”, for which the “apparent KD of MS2 coat protein” value (input ligand: FMN 200 uM) turned out to be 8.17 nM, the “apparent KD of MS2 coat protein” value under setting [4] was 2.07 nM and the “apparent KD of MS2 coat protein” value (input ligand: none) came out at 12.3 nM.
Consider “AGACACAUGAGGAUCACCCAUGUUACGAGCUUAGCUCGGACACAGGAUAUCCGGUCCUAGAGACCGGAGAAGGGUGGCUGAAAA [Zara MOD2] (Eterna round: R96, puzzle: Same State NG 3)”, for which the “apparent KD of MS2 coat protein” value runs as follows: (input ligand: FMN 200 uM) 728 nM; under setting [4], 212 nM; (input ligand: none) 587 nM.
As for “GUGGUCAGACAUGAGGAUCACCCAUGUGGAAUAAAUAAGGAGAAGGAUAUGCAAUAUAGGAUAUAGUAGAAGGUCUGGUUGGUG (Eterna round: R96, puzzle: Same State NG 3)”, the “apparent KD of MS2 coat protein” value under setting [4] worked out at 63.4 nM.
On the same count and under the same terms, in the case of “AAUUUAAUACAUGAGGAUCACCCAUGUAAAUUAAUUAAGAUCUAGGAUAUCAGCUCGAAUAGAGCUGAGAAGGAGAUCACAUGU [SSNG3/19-B1] (Eterna round: R96, puzzle: Same State NG 3)” it was 13.8 nM.
Turning to “UAUCCAUAGAUAGGAUAUCAGUAUACAUGAGGAUCACCCAUGUUAUAUUUGGUUUUAAUUUAGUCUGAGAAGGAUCUUGAUGAA [SameState NG2 #2] (Eterna round: R96, puzzle: Same State NG 2)”, the “apparent KD of MS2 coat protein” value runs as follows: (input ligand: FMN 200 uM) 14.7 nM; under setting [4], 11.9 nM; (input ligand: none) 15.3 nM.
On to “GGUAUCGACACAGGAUAUGCUAUCCUUUGGGUAGCAGAAGGGUGAACAUGAGGAUCACCCAUGUAGGUGCCAGGGCGUGAGCCC [JL SSNG1 1.79] (Eterna round: R96, puzzle: Same State NG 1)”, for which the “apparent KD of MS2 coat protein” value is, setting by setting: (input ligand: FMN 200 uM) 368 nM; under setting [4], 94.1 nM; (input ligand: none) 787 nM.
Regarding “CCCUUCGGCACAUGAGGAUCACCCAUGUUUUAGUGGAAGAGGUAGGAUAUGGCUGGGAGCAGAAGCCAGAAGGACCAAAUAAAU [Attiatan] (Eterna round: R96, puzzle: Same State NG 3)”, the “apparent KD of MS2 coat protein” value runs as follows: (input ligand: FMN 200 uM) 22.1 nM; under setting [4], 19 nM; (input ligand: none) 9.8 nM.
As for “GAGCCAGUCCGAGGAUAUUCAUAUUACAUGAGGAUCACCCAUGUAGGCUCAGAAAAGGAGCCUUGGGAGAAGGCGGACUGGCUC [Xeonanisa<<3] (Eterna round: R96, puzzle: Same State NG 2)”, the “apparent KD of MS2 coat protein” value (input ligand: FMN 200 uM) worked out at 13.4 nM, the “apparent KD of MS2 coat protein” value under setting [4] was found to be 153 nM and the “apparent KD of MS2 coat protein” value (input ligand: none) is 217 nM.
Take “AGGCGGAUAUCACAGGAUAUGUGCGCGUUCACAUGAGGAUCACCCAUGUAAAGGACGAGCCAAAAGCAGAAGGGUGACCACGCGA [Aedorlebe] (puzzle: Same State 2)”: the “apparent KD of MS2 coat protein” value runs as follows: under setting [1], 15.3 nM; under setting [2], 14.8 nM; under setting [3], 25.4 nM.
Consider “ACAAGCUUUUUUGUAGUGAAAGGUGGGAUACAUGAGGAUCACCCAUGUAUUGUUGUUAAUAUUGGACCUCGUCUUAU [JR_SHM208A_Sub084] (puzzle: Sensor for hsa-mir-208a)”, for which the “apparent KD of MS2 coat protein” value came to 22.1 nM under setting [1], 14.2 nM under setting [2] and 22.5 nM under setting [3].
As to “AUUAUUGAUGCAGGAUAUGAUUAACAUGAGGAUCACCCAUGUGGUGUUGUGAGUAAGGAGAGUGAUCAGAAGGGCAUUUUUUUU [JMF's solution 23] (Eterna round: R96, puzzle: Same State NG 2)”, the “apparent KD of MS2 coat protein” value runs as follows: (input ligand: FMN 200 uM) 747 nM; under setting [4], 435 nM; (input ligand: none) 436 nM.
As to “UAUCUCAUGUAAGGAUAUGCAGCCGUUUCGGCUGCAGAAGGUACUAUAAUACAUGAGGAUCACCCAUGUCUCUCGCAUUGCGAG [JL SSNG1 1.49] (Eterna round: R96, puzzle: Same State NG 1)”, the “apparent KD of MS2 coat protein” value (input ligand: FMN 200 uM) was 186 nM, the “apparent KD of MS2 coat protein” value under setting [4] turned out to be 150 nM and the “apparent KD of MS2 coat protein” value (input ligand: none) is 293 nM.
